Target: the molecule itself
Experiment: native gel or EMSA; non-denaturing PAGE of OGFOD1 and of Tpa1p, each run alone; conditions not given

B1: Tpa1p (termination and polyadenylation protein 1) (enzyme, S. cerevisiae, UniProt P40032 1-644, looked up)
chain: MKRKTAEVKGEKERNSKQISLEEDKIKGMFNPKIWDKTFQDGLKKEIEDSQPYNWGTIHELVNDDLLRAVRKEIETEIHFTKKETDIYRVNQSGDLANLSGLDWDDLSRLPNLFKLRQILYSKQYRDFFGYVTKAGKLSGSKTDMSINTYTKGCHLLTHDDVIGSRRISFILYLPDPDRKWKSHYGGGLRLFPSILPNVPHSDPSAKLVPQFNQIAFFKVLPGFSFHDVEEVKVDKHRLSIQGWYHIPQVGEEGYIPGEEEAWVRNNTSTLAQIESNVLEDFEFPKDERNILSFHEVKHFEKMLKGDAGAKTDNTPKESMTSVISDSVKLSEAEFTYLSQYISPEHLSSKGIEKLQKQFVENSSLQIESFLNDDKSELLKKVIKQKELEQECPYHSKDVKAPWKTAIPPHKARYLYIDGKEYRNFQTEADILEALNNNDLPNFQFTKDAIKIISDASGNSRENNFDAELALIDLAVFHKSTIFKKYLALLTSLCPVSEQILIRRFRPGMDFTLATKCRFNELLKSNPDIIDAVLEGTLCLTPSAGWESGELGGYELYMMDDDEDNKQYLKEDVEDASVYRADDSGDSVLINDPPAWNTFNLVLRDESVLEFVKYVSWSAKSSRWDVKMKWDVKSCDEDGQEDEA
notes: Tpa1p, Saccharomyces cerevisiae, full length, 644 aa, 74 kDa; plasmid pNIC28_Tpa1p; source: E. coli BL21(DE3), purified (HisTrap, Superdex 200, MonoQ)
stoichiometry N: 2

Source: article PMC4396695, “Structure of the Ribosomal Oxygenase OGFOD1 Provides Insights into the Regio- and Stereoselectivity of Prolyl Hydroxylases” (Structure(London, England:1993), 2015)
